PMC5647336

Target: Hp-chimMotB (soluble chimeric variant of Helicobacter pylori MotB with the transmembrane helix replaced by a GCN4-derived leucine zipper) (S. cerevisiae | Helicobacter pylori) (UniProt P03069)
Assay: SAXS; Hp-chimMotB at 0.05, 0.11 and 0.25 mg/mL in 100 mM sodium acetate pH 4.6, 200 mM NaCl, room temperature; MW from I(0) (Guinier, P(r)) and Porod volume compared with the theoretical dimer mass

Hp-chimMotB (soluble chimeric variant of Helicobacter pylori MotB with the transmembrane helix replaced by a GCN4-derived leucine zipper) (from UniProt P03069 249-279; P56427 41-257)
stoichiometry N: 2
